Test system: high-mobility group box 1 (HMGB1)
Sequence (chain, as listed by the source): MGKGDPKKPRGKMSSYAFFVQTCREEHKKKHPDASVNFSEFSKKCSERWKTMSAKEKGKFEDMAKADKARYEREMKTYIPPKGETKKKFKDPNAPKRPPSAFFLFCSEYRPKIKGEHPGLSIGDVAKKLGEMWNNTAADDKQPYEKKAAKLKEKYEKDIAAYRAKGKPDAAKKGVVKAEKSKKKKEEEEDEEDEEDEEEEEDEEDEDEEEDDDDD

MAGE-A3/6-TRIM28 E3 ubiquitin ligase
in vitro ubiquitination reactions on protein microarrays containing >9000 recombinant proteins (screen for direct substrates of MAGE-A): As a significantly ubiquitinated target of the MAGE-TRIM28 complex, high-mobility group box 1 (HMGB1) emerged

— patent publication US20190300967
